T1: oxidized form of human α-defensin HD5 (HD5 with three intramolecular disulfide bonds) (human, six cysteine residues form three intramolecular disulfide bonds (oxidized form))
T1 construct: Chemically synthesized mature HD5 (32 amino acids), oxidized and purified by reverse-phase chromatography; confirmed by MALDI-TOF MS; also called ox-HD5; DEFA5
T1 peptide: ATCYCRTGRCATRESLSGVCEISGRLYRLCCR

T2: reduced form of HD5 (HD5 without any intramolecular disulfide bond) (human, no intramolecular disulfide bonds (reduced form))
T2 construct: Chemically synthesized mature HD5 before the oxidation treatment; also called r-HD5
T2 peptide: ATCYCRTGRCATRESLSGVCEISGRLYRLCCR

B1: monoclonal antibody 12-1 (antibody, V domains shown)
VH: QVQLQQSGAELARPGASVKLSCKASGYTFTSYGISWVKQRTGQGLEWIGEIYPRSGNTYYNEKFKGKATLTADKSSSTAYMQLSSLTSEDSAVYFCARDYDGFPYFDYWGQGTTLTVSS
VL: DIVLTQSPASLAVSLGQRATISCRASESVDSYGYSFMHWYQQKPGQPPKLLIYRASNLESGIPARFSGSGSRTDFTLTINPVEADDVATYYCQQSNEDPRTFGGGTKLEIK
notes: constant regions are not; Immobilized on the plate as capture antibody in the sandwich ELISA; also called capture antibody 12-1; anti-ox-HD5 monoclonal antibody according to a)
B2: monoclonal antibody 39E-7 (antibody, V domains shown)
VH: EVQLQQSGPELVKPGASVKISCKASGYSFTGSYMNWVKQSPEKSLEWIGEINPSTGGTTHNQKFKAKATLTVDTSSSTFYMQLKSLTSEDSAVYYCARDYAGSYDWYFDVWGAGTTVTVSS
VL: DIKMTQSPSSMYASLGERVTITCKASQDINSYLSWFQQKPGKSPKTLIYRANRLVDGVPSRFSGSGSGQDYSLTISSLEYEDMGIYYCLQYDEFPYTFGGGTKLEII
notes: constant regions are not; also called detection antibody 39E-7; anti-ox-HD5 monoclonal antibody according to b)

Experiments:
[1] = biological target: T1, oxidized form of human α-defensin HD5 …; assay: indirect ELISA screening, plate coated with 1 µg/ml ox-HD5, hybridoma supernatant
Experimental: Autoimmune disease mice (C3H/HeJJmsSlc-lpr/lpr available from Japan SLC, Inc.) injected with an adjuvant according to a conventional method were immunized with ox-HD5 by three times of intra-abdominal injection (0.2 mg each time). Later, cells were collected from the spleen of the immunized mice according to a conventional method, and then fused with a mouse myeloma cell line P3U1 with use of 50% polyethylene glycol 1500 (Sigma-Aldrich Co. LLC) to prepare hybridomas. Each hybridoma clone was screened by indirect ELISA, and subcloned four times by a limiting dilution method.
The indirect ELISA was carried out by the following procedures. Wells of a flat-bottomed microtiter plate (Nunc) were coated with 1 μg/ml of ox-HD5 dissolved in Ca²⁺/Mg²⁺-free phosphate buffered saline (PBS), and then incubated overnight at 4° C. After three times of washing with PBS containing 0.1% Tween 20 (PBS-T), culture supernatant from each hybridoma clone was added to the wells, and incubated at 37° C. for 1 hour. […] 100 μL of 3,3′,5,5′-tetramethylbenzidine (TMB) substrate buffer (KPL) was added to each well, then the plate was incubated at 25° C. for 30 minutes, and then absorbance at 405 nm was measured with use of a microplate reader Multiscan FC (Thermo Scientific).

[2] = biological target: T2, reduced form of HD5 (HD5 without any …); assay: sandwich ELISA, capture 12-1 (1 mg/ml) with detection 39E-7 (0.5 mg/ml), antigen 0 to 60 ng/ml
[3] = biological target: T1, oxidized form of human α-defensin HD5 …; assay: sandwich ELISA, capture 12-1 (1 mg/ml) with detection 39E-7 (0.5 mg/ml)

Binder	binding result [1]	binding result [2]	binding result [3]
B1	binds	binds	–
B2	–	binds	binds

Reference: patent US20220357317A1 (NATIONAL UNIVERSITY COMORATION HOKKAIDO UNIVERSITY, published 2022)
